Assay results published in the Human Domainome abundance scans (Beltran et al. 2025).
± gives the uncertainty stated by the source.

B1: Zinc finger MYM-type protein 6, residues 427 to 504; numbered along this chain, O95789 (parent)
chain: KLKCQHCNHLFATKPELLFYKGKMFLFCGKNCSDEYKKKNKVVAMCDYCKLQKIIKETVRFSGVDKPFCSEVCKFLSA

Variants of: B1
Assay: abundance fitness (aPCA) (normalised: wild type 0, dead -1); higher = more abundant; growth selection in yeast, the domain comes from the species named
Details: Homo sapiens

In order of rising abundance fitness:
1. KLKCQHCNHLFATKPELLFYKGKMFLKCGKNCSDEYKKKNKVVAMCDYCKLQKIIKETVRFSGVDKPFCSEVCKFLSA [F27K]  -0.727 ± 0.17
2. KLKCQHCNHLFATKPELLFYKGKMFLFCPKNCSDEYKKKNKVVAMCDYCKLQKIIKETVRFSGVDKPFCSEVCKFLSA [G29P]  -0.683 ± 0.069
3. KLKCQHCNHLFATKPELLFYKGKMFLFCWKNCSDEYKKKNKVVAMCDYCKLQKIIKETVRFSGVDKPFCSEVCKFLSA [G29W]  -0.602 ± 0.041
4. KLKCQHCNHLFATKPELLFYKGKMFLGCGKNCSDEYKKKNKVVAMCDYCKLQKIIKETVRFSGVDKPFCSEVCKFLSA [F27G]  -0.545 ± 0.037
5. KLKCQHCNHLFATKPELLFYKGKMFLQCGKNCSDEYKKKNKVVAMCDYCKLQKIIKETVRFSGVDKPFCSEVCKFLSA [F27Q]  -0.527 ± 0.054
6. KLKCQHCNHLFATKPELLFYKGKMFLNCGKNCSDEYKKKNKVVAMCDYCKLQKIIKETVRFSGVDKPFCSEVCKFLSA [F27N]  -0.512 ± 0.19
7. KLKCQHCNHLFATKPELLFYKGKMFLECGKNCSDEYKKKNKVVAMCDYCKLQKIIKETVRFSGVDKPFCSEVCKFLSA [F27E]  -0.508 ± 0.051
8. KLKCQHCNHLFATKPELLFYKGKMFLHCGKNCSDEYKKKNKVVAMCDYCKLQKIIKETVRFSGVDKPFCSEVCKFLSA [F27H]  -0.405 ± 0.069
9. KLKCQHCNHLFATKPELLFYKGKMFLFCDKNCSDEYKKKNKVVAMCDYCKLQKIIKETVRFSGVDKPFCSEVCKFLSA [G29D]  -0.386 ± 0.13
10. KLKCQHCNHLFATKPELLFYKGKMFLFCLKNCSDEYKKKNKVVAMCDYCKLQKIIKETVRFSGVDKPFCSEVCKFLSA [G29L]  -0.345 ± 0.04
11. KLKCQHCNHLFATKPELLFYKGKMFLFCHKNCSDEYKKKNKVVAMCDYCKLQKIIKETVRFSGVDKPFCSEVCKFLSA [G29H]  -0.333 ± 0.21
12. KLKCQHCNHLFATKPELLFYKGKMFLFCVKNCSDEYKKKNKVVAMCDYCKLQKIIKETVRFSGVDKPFCSEVCKFLSA [G29V]  -0.204 ± 0.034
13. KLKCQHCNHLFATKPELLFYKGKMFLVCGKNCSDEYKKKNKVVAMCDYCKLQKIIKETVRFSGVDKPFCSEVCKFLSA [F27V]  -0.161 ± 0.036
14. KLKCQHCNHLFATKPELLFYKGKMFLTCGKNCSDEYKKKNKVVAMCDYCKLQKIIKETVRFSGVDKPFCSEVCKFLSA [F27T]  -0.161 ± 0.04
15. KLKCQHCNHLFATKPELLFYKGKMFFFCGKNCSDEYKKKNKVVAMCDYCKLQKIIKETVRFSGVDKPFCSEVCKFLSA [L26F]  -0.148 ± 0.11
16. KLKCQHCNHLFATKPELLFYKGKMFLFCTKNCSDEYKKKNKVVAMCDYCKLQKIIKETVRFSGVDKPFCSEVCKFLSA [G29T]  -0.145 ± 0.045
17. KLKCQHCNHLFATKPELLFYKGKMFLFCEKNCSDEYKKKNKVVAMCDYCKLQKIIKETVRFSGVDKPFCSEVCKFLSA [G29E]  -0.131 ± 0.069
18. KLKCQHCNHLFATKPELLFYKGKMFLFCSKNCSDEYKKKNKVVAMCDYCKLQKIIKETVRFSGVDKPFCSEVCKFLSA [G29S]  -0.123 ± 0.038
19. KLKCQHCNHLFATKPELLFYKGKMFLFCRKNCSDEYKKKNKVVAMCDYCKLQKIIKETVRFSGVDKPFCSEVCKFLSA [G29R]  -0.104 ± 0.029
20. KLKCQHCNHLFATKPELLFYKGKMFLFCCKNCSDEYKKKNKVVAMCDYCKLQKIIKETVRFSGVDKPFCSEVCKFLSA [G29C]  -0.096 ± 0.052
21. KLKCQHCNHLFATKPELLFYKGKMFLFCQKNCSDEYKKKNKVVAMCDYCKLQKIIKETVRFSGVDKPFCSEVCKFLSA [G29Q]  -0.09 ± 0.056
22. KLKCQHCNHLFATKPELLFYKGKMFLFCMKNCSDEYKKKNKVVAMCDYCKLQKIIKETVRFSGVDKPFCSEVCKFLSA [G29M]  -0.084 ± 0.089
23. KLKCQHCNHLFATKPELLFYKGKMFWFCGKNCSDEYKKKNKVVAMCDYCKLQKIIKETVRFSGVDKPFCSEVCKFLSA [L26W]  -0.053 ± 0.032
24. KLKCQHCNHLFATKPELLFYKGKMFLFCAKNCSDEYKKKNKVVAMCDYCKLQKIIKETVRFSGVDKPFCSEVCKFLSA [G29A]  -0.033 ± 0.029
25. KLKCQHCNHLFATKPELLFYKGKMFPFCGKNCSDEYKKKNKVVAMCDYCKLQKIIKETVRFSGVDKPFCSEVCKFLSA [L26P]  -0.03 ± 0.04
26. KLKCQHCNHLFATKPELLFYKGKMFMFCGKNCSDEYKKKNKVVAMCDYCKLQKIIKETVRFSGVDKPFCSEVCKFLSA [L26M]  -0.015 ± 0.056
27. KLKCQHCNHLFATKPELLFYKGKMFLFCKKNCSDEYKKKNKVVAMCDYCKLQKIIKETVRFSGVDKPFCSEVCKFLSA [G29K]  -0.004 ± 0.07
28. KLKCQHCNHLFATKPELLFYKGKMFTFCGKNCSDEYKKKNKVVAMCDYCKLQKIIKETVRFSGVDKPFCSEVCKFLSA [L26T]  0.035 ± 0.048
29. KLKCQHCNHLFATKPELLFYKGKMFVFCGKNCSDEYKKKNKVVAMCDYCKLQKIIKETVRFSGVDKPFCSEVCKFLSA [L26V]  0.037 ± 0.031
30. KLKCQHCNHLFATKPELLFYKGKMFSFCGKNCSDEYKKKNKVVAMCDYCKLQKIIKETVRFSGVDKPFCSEVCKFLSA [L26S]  0.054 ± 0.032
31. KLKCQHCNHLFATKPELLFYKGKMFRFCGKNCSDEYKKKNKVVAMCDYCKLQKIIKETVRFSGVDKPFCSEVCKFLSA [L26R]  0.089 ± 0.029
32. KLKCQHCNHLFATKPELLFYKGKMFKFCGKNCSDEYKKKNKVVAMCDYCKLQKIIKETVRFSGVDKPFCSEVCKFLSA [L26K]  0.09 ± 0.04
33. KLKCQHCNHLFATKPELLFYKGKMFNFCGKNCSDEYKKKNKVVAMCDYCKLQKIIKETVRFSGVDKPFCSEVCKFLSA [L26N]  0.097 ± 0.058
34. KLKCQHCNHLFATKPELLFYKGKMFGFCGKNCSDEYKKKNKVVAMCDYCKLQKIIKETVRFSGVDKPFCSEVCKFLSA [L26G]  0.125 ± 0.029
35. KLKCQHCNHLFATKPELLFYKGKMFQFCGKNCSDEYKKKNKVVAMCDYCKLQKIIKETVRFSGVDKPFCSEVCKFLSA [L26Q]  0.166 ± 0.057
